Where no end group is shown, it is not given here.
Target: Isolated RCK domain (M107-A336) of MthK, preparation for NMR (from pQE70-MthK) (Methanobacterium thermoautotrophicum, UniProt O27564 107-336)
Assay: NMR titration; 700-MHz 1H NMR, 25 °C; isolated RCK titrated with synthetic peptide at [peptide]:[RCK] 0:1, 1:5, 1:2, 1:1 and 1:0; 20 mM Tris-HCl (pH 7.5), 150 mM KCl, 1 mM DTT; RCK concentrated to approximately 200 μM; disappearance of the peptide's His11 and Met1 peaks followed
Conditions: both partners purified

B1: synthetic aa1–11 peptide (peptide)
peptide: MVLVIEIIRKH-NH2
notes: MthK K+ channel of Methanobacterium thermoautotrophicum, N-terminal residues 1-11; source: synthetic peptide (Celtek Peptides)
**Q.** Does B1 bind?
**A.** binds

Reference: article PMC2573919, “The Desensitization Gating of the MthK K^+ Channel Is Governed by Its Cytoplasmic Amino Terminus” (PLoS Biology, 2008)
